Experimental data as given in publication PMC8827053 (RSC Chemical Biology, 2021).

Legend:
Format in all cases: cell-based
SH-SY5Y cells [1] = assay: Membrane toxicity immunocytochemistry; settings: Aβ42 10 μM, 3 h, pH 7.4, OC antibody, confocal
SH-SY5Y cells [2] = assay: Live/dead assay; settings: Aβ42 10 μM, 24 h, calcein-AM/propidium iodide, ImageJ analysis
SH-SY5Y cells [3] = assay: Neuronal rescue from Aβ42-induced toxicity; settings: Aβ42 10 μM preincubated 48 h pH 7.4, 24 h treatment, Alamar blue

Aβ42: Amyloid beta 42 peptide, the most toxic form of Aβ (PDB: 1Z0Q)
Total area covered by red fluorescence-labelled Aβ aggregates, Aβ42 alone (SH-SY5Y cells [1]): 12.3%
Dead cells, Aβ42 alone (SH-SY5Y cells [2]): ~36%
Cell viability with Aβ42 alone (SH-SY5Y cells [3]): ~64%
